Measured values reported in patent US20230272113A1.
Changes are numbered by the printed parent chain. Values belong to the binder of their own block, whether it stands above or below them.

Biological target: human FLT3 on transfected CHO cells (human) (UniProt P36888)
Test: FACS, scFv on CHO-human FLT3 cells pre-incubated with FLT3 ligand (competitor)

B2: FL-22 (scFv)
scFv: QVTLKESGPVLVKPTETLTLTCTVSGFSFRNARMGVSWIRQPPGKALEWLAHIFSNDEKSYSTSLKSRLTISKDTSKSQVVLTLTNMDPVDTATYFCARMPEYSSGWSGAFDIWGQGTMVTVSSGGGGSGGGGSGGGGSDIQMTQSPSSLSASVGDRVTITCRASQGISNYLAWYQQKPGKAPKRLIYAASTLQSGVPSRFSGSGSGTEFTLTISSLQPEDFATYYCLQHNTYPWTFGQGTKVEIK
median [+ligand]/median [w/o ligand]*100: > 75%

B4: FL-9 (scFv)
scFv: QVTLKESGPTLVKPTETLTLTCTVSGFSLSNARMGVSWIRQPPGKALEWLAHIFSNDEKSYSTSLKSRLTISKDTSKSQVVLTMTNMDPVDTATYYCARIPGYGGNFYYHYYGMDVWGQGTTVTVSSGGGGSGGGGSGGGGSDIQMTQSPSSLSASVGDRVTITCRASQGIRNDLAWYQQKPGKAPKRLIYAASTVQSGVPSRFSGSGSGTEFALTISSLQPEDFATYYCLQHNSFPWTFGQGTKVDIK
median [+ligand]/median [w/o ligand]*100: > 75%

B6: FL-33 (scFv)
scFv: QVTLKESGPVLVKPTETLTLTCTVSGFSLRNARMGVSWIRQPPGKTLEWLAHIFSNDEKSYSTSLKSRLTISKDTSKGQVVLTMTNMDPVDTATYYCARIVGYGSGWYGYFDYWGQGTLVTVSSGGGGSGGGGSGGGGSDIQMTQSPSSLSASVGDRVTITCRASQGIGDDLGWYQQIPGKAPKRLIYATSVLQSGVPSRFSGSGSGTEFTLTISSLQPEDFATYYCLQHNSYPLTFGGGTKLEIK
median [+ligand]/median [w/o ligand]*100: > 75%

B8: FL-20 (scFv)
scFv: QVTLKESGPALVKPTETLTLTCTLSGFSLNNARMAVSWIRQPPGKTLEWLAHIFSNDEKSYSTSLKSRLTISKDTSKSQVVLTMTNMDPEDTATYYCARIVGYGTGWYGFFDYWGQGILVTVSSGGGGSGGGGSGGGGSDIQMTQSPSSLSASVGDRVTITCRASQGIRNDLAWYQQKPGKAPKRLIYAASSLQSGVPSRFSGSGSGTEFTLTISSLQPEDFATYYCLQHNSYPLTFGGGTKVEIK
median [+ligand]/median [w/o ligand]*100: > 75%

B9: FL-24 (scFv)
scFv: QVTLKESGPALVKPTETLTLTCTVSGFSLRNVRMGVSWIRQPPGKALEWLAHIFSNDEKSYSTSLKSRLTISKDTSKSQVVLILTNMDPVDTATYFCARMPEYSSGWSGAFDIWGQGTMVTVSSGGGGSGGGGSGGGGSDIQMTQSPSSLSASVGDRVTITCRASQDIRDDLVWYQQKPGKAPKRLIYAASTLQSGVPSRFSGSGSGTEFTLTISSLQPEDFATYYCLQHHSYPWTFGQGTKVEIK
median [+ligand]/median [w/o ligand]*100: > 75%

B10: FL-13 (scFv)
scFv: QVTLKESGPTLVKPTETLTLTCTLSGFSLNNARMGVSWIRQPPGKALEWLAHIFSNDEKSYSTSLKNRLTISKDSSKTQVVLTMTNVDPVDTATYYCARIVGYGSGWYGFFDYWGQGTLVTVSSGGGGSGGGGSGGGGSDIQMTQSPSSLSASVGDRVTITCRASQGIRNDLGWYQQKPGKAPKRLIYAASTLQSGVPSRFSGSGSGTEFTLTISSLQPEDFATYYCLQHNSYPLTFGGGTKVEIK
median [+ligand]/median [w/o ligand]*100: > 75%

B11: FL-19 (scFv)
scFv: QVTLKESGPTLVKPTETLTLTCTVSGFSLSYARMGVSWIRQPPGKALEWLAQIFSNDEKSYSTSLKSRLTISKDTSKSQVVLTMTDMDPEDTATYYCARIVGYGTGWYGYFDYWGQGTQVTVSSGGGGSGGGGSGGGGSDIQMTQSPSSLSASVGDRVTITCRASQDIGDDLGWYQQKPGKAPKRLIYAASTLQSGVPFRFSGSGSGTDFTLTISSLQPEDFATYYCLQHNSYPLTFGGGTKVEIK
median [+ligand]/median [w/o ligand]*100: > 75%

B14: FL-32 (scFv)
scFv: QVTLKESGPTLVKPTETLTLTCTVSGFSFRNARMGVSWIRQPPGKALEWLAHIFSNDEKSYSTSLKSRLTISKDTSKGQVVLTMTNMDPVDTATYYCARIVGYGSGWYGYFDYWGQGTLVTVSSGGGGSGGGGSGGGGSDIQMTQSPSSLSASVGDRVTITCRASQGIRNDLVWYQQKPGKAPKRLIYAASTLQSGVPSRFSGSGSGTEFILTISSLQPEDFATYFCLQHYSYPLTFGGGTKLEIK
median [+ligand]/median [w/o ligand]*100: > 75%

B16: FL-14 (scFv)
scFv: B8 scFv with S78G, E90V, T105S, F110Y, I118T, G167D, A173G, S192T
median [+ligand]/median [w/o ligand]*100: > 75%

B20: FL-29 (scFv)
scFv: QVTLKESGPALVKPTQTLTLTCTFSGFSLSNARMGVSWIRQPPGKALEWLAHIFSNDEKSYRTSLKSRLTISKDTSKSQVVLTMTNMDPVDTATYYCARIVGYGSGWYAYFDYWGQGTLVTVSSGGGGSGGGGSGGGGSDIQMTQSPSSLSASVGDRVTITCRASQGIRNDLGWYQQKPGKAPKRLIYAASSLQSGVPSRFSGSGSGTEFTLTISSLQPEDFATYYCLQHNSYPLTFGGGTKVEIK
median [+ligand]/median [w/o ligand]*100: > 75%

B22: FL-26 (scFv)
scFv: B2 scFv with S169R, Y171D, A173V, A189G, A190T, T232S, W235L, Q239G
median [+ligand]/median [w/o ligand]*100: > 75%

B23: FL-27 (scFv)
scFv: B2 scFv with A164T, S169R, Y171D, A173V, Y226F, N231Y, T232S, W235L, Q239G
median [+ligand]/median [w/o ligand]*100: > 75%

B26: FL-23 (scFv)
scFv: B9 scFv with L29F, V32A, I83T, R169G, D170Y, V173G, T213I, H231N, Y233F
median [+ligand]/median [w/o ligand]*100: > 75%

Further lines, results first:

median [+ligand]/median [w/o ligand]*100: > 75%
B1: FL-17 (scFv)
scFv: QVTLKESGPTLVKPTETLTLTCTVSGFSLSNARMGVSWIRQPPGKALEWLANIFSNDEKSYSTSLKSRLTISKGTSKSQVVLTMTNVNPVDTGTYYCARIVGYGSGWYGYFDYWGQGTLVTVSSGGGGSGGGGSGGGGSDIQMTQSPSSLSASVGDRVTITCRASQDIRNDLGWYQQKPGKAPKRLIYATSIRQSGVPSRFTGSGSGTEFTLTISGLQPEDFATYFCLQHNSFPLTFGGGTKVEIK

median [+ligand]/median [w/o ligand]*100: > 75%
B3: FL-21 (scFv)
scFv: QVTLKESGPALVKPTETLTLTCTFSGFSLSNARMGVSWIRQPPGKALEWLAHIFSNDEKSYSTSLKSRLTISKDTSKSQVVLTMTNMDPVDTATYYCARIPGYGGNFYYHYYGMDVWGQGTTVTVSSGGGGSGGGGSGGGGSDIQMTQSPSSLSASVGDRVTITCRTSRGIRNDLGWYQQIPGRAPKRLIYAASTLQSGVPSRFSGSGSGTEFTLTISSLQPEDFATYYCLQHNNFPWTFGQGTKVEIK

median [+ligand]/median [w/o ligand]*100: > 75%
B5: FL-15 (scFv)
scFv: B8 scFv with S78G, E90V, T105S, F110Y, I118T, G167D, R169G, A173G

median [+ligand]/median [w/o ligand]*100: > 75%
B7: FL-16 (scFv)
scFv: QVTLKESGPVLVKPTETLTLTCTVSGFSLRNARMAVSWIRQPPGKTLEWLAHIFSNDEKSYSTSLKSRLTISKDTSKSQVVLTMTNMDPVDTATYYCARIVGYGSGWYGYFDYWGQGTLVTVSSGGGGSGGGGSGGGGSDIQMTQSPSSVSASVGDRVTITCRASQDIRYDLAWYQQKPGKAPKRLIYAASSLQSGVPSRFSGSGSGTEFTLTISSLQPEDFATYYCLQHNFYPLTFGGGTKVEIK

median [+ligand]/median [w/o ligand]*100: > 75%
B12: FL-18 (scFv)
scFv: QVTLKESGPVLVKPTQTLTLTCTFSGFSLSNARMGVSWIRQPPGKALEWLAHIFSNDEKSFSTSLKNRLTISKDTSKSQVVLTMTNMDPVDTATYYCARMVGYGSGWYAYFDYWGQGTQVTVSSGGGGSGGGGSGGGGSDIQMTQSPSSLSASVGDRVTITCRASQSISSYLNWYQQKPGKAPKLLIYAASSLQSGVPSRFSGSGSGTDFTLTISSLQPEDFATYYCLQHNSYPLTFGGGTKVEIK

median [+ligand]/median [w/o ligand]*100: > 75%
B13: FL-34 (scFv)
scFv: QVTLKESGPALVKPTETLTLTCTFSGFSLRNARMGVSWIRQPPGKALEWLAHIFWNDEKSYSTSLKSRLTISKDTSKSQVVLTMTNMDPVDTATYYCARIPYYGSGSYNYGMDVWGQGTTVTVSSGGGGSGGGGSGGGGSDIQMTQSPSSLSASVGDRVTITCRASQGIRNDLGWYQQKPGKAPKRLIYAASSLQSGVPSRFSGSGSGTEFTLTISSLQPEDFATYYCLQHNSYPLTFGGGTKLEIK

median [+ligand]/median [w/o ligand]*100: > 75%
B15: FL-11 (scFv)
scFv: QVTLKESGPVLVKPTETLTLTCTLSGFSLNNAKMGVSWIRQPPGKALEWLAQIFSNGEKSYSTSLKSRLTISKDTSKGQVVLTMTNMDPVDTATYYCSRIVGYGSGWYGYFDYWGQGTLVTVSSGGGGSGGGGSGGGGSDIQMTQSPSSLSASVGDRVTITCRASQGIRNDLGWYQQKPGKAPKRLIYGASTLQSGVPSRFSGSGSGTEFTLTISSLQPEDFATYYCLQHNSYPLTFGGGTKVEIK

median [+ligand]/median [w/o ligand]*100: > 75%
B17: FL-30 (scFv)
scFv: QVTLKESGPVLVKPTQTLTLTCTFSGFSLSNARMGVSWIRQPPGKALEWLALIYWNDDKRYSPSLKSRLTITKDTSKNQVVLTMTNMDPVDTATYYCARMVGYGSGWYAYFDYWGQGTLVTVSSGGGGSGGGGSGGGGSDIQMTQSPSSLSASVGDRVTITCRASQGIRNDLGWYQQKPGKAPKRLIYAASSLQSGVPSRFSGSGSGTEFTLTISSLQPEDFATYYCLQHNSYPLTFGGGTKVEIK

median [+ligand]/median [w/o ligand]*100: > 75%
B18: FL-12 (scFv)
scFv: B20 scFv with Q16E, F24V, H52N, R62S, D74G, V90E, A109G, K184Q

median [+ligand]/median [w/o ligand]*100: > 75%
B19: FL-31 (scFv)
scFv: B8 scFv with E16Q, L24F, N30S, A35G, T46A, N86D, A164T, A173G

median [+ligand]/median [w/o ligand]*100: > 75%
B21: FL-10 (scFv)
scFv: QVTLKESGPVLVKPTETLTLTCTVSGFSFRNARMGVSWIRQPPGKALEWLAHIFSNDEKSYSTSLKSRLTISKDTSKSQVVLTLTNMDPVDTATYFCARMPEYSSGWSGAFDIWGQGTMVTVSSGGGGSGGGGSGGGGSDIQMTQSPSSLSASVGDRVTITCRASQDIRDDLGWYQQKPGNAPKRLIYGASTLQSGVPSRFSGSGSGTEFTLTISSLQPEDFATYYCLQHNSYPLTFGGGTKVDIK

median [+ligand]/median [w/o ligand]*100: > 75%
B24: FL-25 (scFv)
scFv: B21 scFv with V10A, N181K, G189A, S202T, S204G, Y233F, L235F, D244E

median [+ligand]/median [w/o ligand]*100: > 75%
B25: FL-28 (scFv)
scFv: B21 scFv with D167G, R169G, K178I, N181K, G189A, A190T, T192V, D244E
